According to patent US20220143185A1, “ORALLY ACTIVE SMALL MOLECULE INHIBITOR OF PAI-1” (Northwestern University, priority 2019, published 2022):

Legend:
[1] = target: T1, PCSK9 (Homo sapiens, UniProt Q8NBP7); test: Plasma PCSK9 and PAI-1 levels in hypercholesterolemic patients treated with PCSK9 monoclonal antibodies; format: in vivo; parameters: from tissue; host or cells: plasma of hypercholesterolemic patients; details: before vs during treatment; for plasma PAI-1 levels: n=28, p=0.0029
Experimental: Plasma samples from hypercholesterolemic patients were obtained from the OHSU Center for Preventive Cardiology Registry and Biorepository, approved by OHSU Institutional Review Board (17329).
Total cholesterol was quantified in the murine plasma using an enzymatic determination (Pointe Scientific, Cat #C7510). The lipoprotein profile of the murine plasma samples was assessed running a fast-phase liquid chromatography (FPLC), in brief 100 μL of plasma (from one animal or a pool of several samples of the same conditions) were loaded to a Superose 6 column (GE HealthCare, Cat #29-0915-96) at a flow rate of 0.5 mL/min in running buffer (0.15M NaCl, 0.01M Na2HPO4 and 1 mM EDTA). Fractions were collected every minute for 41 minutes and analyzed for cholesterol concentrations as described above. Murine plasma PCSK9 levels were determined using an ELISA kit (MBL International, Cat #CY-80781). Murine PAI-1 levels were quantified using an ELISA kit (Molecular Innovations, Cat #MPAIKT-TOT). Murine PAI-1 activity levels were quantified by ELISA (Molecular Innovations, Cat #MPAIKT). Human PAI-1 levels were quantified by ELISA (Molecular Innovations, Cat #HPAIKT-TOT).
PAI-1 and PCSK9 levels were also quantified in plasma samples obtained from a human cohort with and without heart failure with preserved ejection fraction (HFpEF). There was again a positive correlation between PAI-1 and PCSK9 levels in these patients, similar to that in mice and in the Amish kindred (FIG. 19D, p<0.0001; R=0.351).

[2] = target: T1, PCSK9

alirocumab
total plasma PCSK9 levels [1]: large increase | plasma PAI-1 levels [1]: significant reduction

recombinant human low molecular weight urokinase
proteolytic degradation of PCSK9 in vitro (Western blot for PCSK9, silver stain) [2]: efficiently promoted the proteolytic degradation of recombinant human PCSK9

B1: evolocumab (antibody, chains of the INN, looked up, V domains shown)
VH: EVQLVQSGAEVKKPGASVKVSCKASGYTLTSYGISWVRQAPGQGLEWMGWVSFYNGNTNYAQKLQGRGTMTTDPSTSTAYMELRSLRSDDTAVYYCARGYGMDVWGQGTTVTVSS
VL: ESALTQPASVSGSPGQSITISCTGTSSDVGGYNSVSWYQQHPGKAPKLMIYEVSNRPSGVSNRFSGSKSGNTASLTISGLQAEDEADYYCNSYTSTSMVFGGGTKLTVL
total plasma PCSK9 levels [1]: large increase | plasma PAI-1 levels [1]: significant reduction
